Experimental data published in patent publication US20140356358A1 (Amgen, published 2014).
Numbering of substitutions follows the chain as printed. In names and notes the source's numbering stands.

B1: variant Fc-fragment Fc-5-106-M4Q (other)
chain: EPKSCDKTHTCPPCPAPELLGGPSVFLFPPKPKDTLMISRTPEVTCVVVDVSHEDPEVKFNWYVDGVEVHNAKTKPREEQYNSTYRVVSVLTVLHQDWLNGKEYKCKVSNKALPAPIEKTISKAKGQPREPQVYTLPPSRDELTKNQVSLTCLVKGFYPSDIAVEWESNGGCVFNQFNCGGGQPENNYKTTPPVLDSDGSFFLYSKLTVDKSRWQQGNVFSCSVMHEALHNHYTQKSLSLSPGK
B2: variant Fc-fragment Fc-5-69-W1F (other)
chain: B1 chain with V173F, F174P, N175L, F177D, N178Y
notes: also called Fc-5-69-WIF
B3: variant Fc-fragment Fc-5-73 (other)
chain: EPKSCDKTHTCPPCPAPELLGGPSVFLFPPKPKDTLMISRTPEVTCVVVDVSHEDPEVKFNWYVDGVEVHNAKTKPREEQYNSTYRVVSVLTVLHQDWLNGKEYKCKVSNKALPAPIEKTISKAKGQPREPQVYTLPPSRDELTKNQVSLTCLVKGFYPSDIAVEWESNGGCAQQWHHEYCGGGQPENNYKTTPPVLDSDGSFFLYSKLTVDKSRWQQGNVFSCSVMHEALHNHYTQKSLSLSPGK
notes: soluble elsewhere
B4: variant Fc-fragment Fc-5-64 (other)
chain: B1 chain with V173H, F174S, N175F, Q176K, F177H, N178F
notes: soluble elsewhere
B5: variant Fc-fragment Fc-5-57 (other)
chain: B1 chain with V173G, F174K, N175H, Q176W, F177H, N178Q
notes: soluble elsewhere
B6: variant Fc-fragment Fc-5-51 (other)
chain: B1 chain with V173H, F174L, N175P, Q176F, F177A, N178V
notes: soluble elsewhere
B7: variant Fc-fragment Fc-5-104 (other)
chain: B1 chain with V173G, F174H, N175E, Q176Y, F177M, N178W
notes: soluble elsewhere
B8: variant Fc-fragment Fc-5-96 (other)
chain: B1 chain with V173M, F174Q, N175M, Q176N, F177K, N178W
notes: soluble elsewhere
B9: variant Fc-fragment Fc-5-112 (other)
chain: B1 chain with V173A, F174L, N175Y, Q176P, F177T
notes: soluble elsewhere
B10: variant Fc-fragment Fc-5-113 (other)
chain: B1 chain with V173Q, F174G, N175M, Q176W, F177T, N178W
notes: soluble elsewhere
B11: variant Fc-fragment Fc-5-92 (other)
chain: B1 chain with V173D, F174G, N175R, Q176T, F177K, N178Y
notes: soluble elsewhere
B12: L6B isolate with insertion SEQ ID NO: 410 (other)
chain: EPKSCDKTHTCPPCPAPELLGGPSVFLFPPKPKDTLMISRTPEVTCVVVDVSHEDPEVKFNWYVDGVEVHNAKTKPREEQYNSTYRVVSVLTVLHQDWLNGKEYKCKVSNKALPAPIEKTISKAKGQPREPQVYTLPPSRDELGGCLKGMHGSACGGTKNQVSLTCLVKGFYPSDIAVEWESNGQPENNYKTTPPVLDSDGSFFLYSKLTVDKSRWQQGNVFSCSVMHEALHNHYTQKSLSLSPGK
B13: L6B isolate with insertion SEQ ID NO: 472 (other)
chain: B12 chain with L147P, K148N, G149D, M150T, H151V, G152R, S153D
B14: L6B isolate with insertion SEQ ID NO: 454 (other)
chain: B12 chain with L147Y, K148G, G149K, M150A, H151G, G152M, S153R, A154D
B15: L6B isolate with insertion SEQ ID NO: 471 (other)
chain: B12 chain with K148R, G149N, M150F, H151M, G152K, S153Q, A154S
B16: L6B isolate with insertion SEQ ID NO: 457 (other)
chain: B12 chain with L147N, K148Q, G149S, M150S, H151S, G152R, S153E
B17: L6B isolate with insertion SEQ ID NO: 460 (other)
chain: B12 chain with L147G, K148E, G149Y, M150N, H151Y, G152V, S153G, A154G
B18: L6B isolate with insertion SEQ ID NO: 427 (other)
chain: B12 chain with L147V, K148Q, G149H, M150K, H151M, S153V, A154V
B19: L6B isolate with insertion SEQ ID NO: 469 (other)
chain: B12 chain with L147E, K148M, G149M, M150K, H151N, G152K, A154G
B20: L6B isolate with insertion SEQ ID NO: 468 (other)
chain: B12 chain with L147T, K148L, M150S, H151A, G152P, S153T, A154L
B21: L6B isolate with insertion SEQ ID NO: 440 (other)
chain: B12 chain with L147N, K148A, G149T, M150L, H151S, S153Y, A154L
B22: L6B isolate with insertion SEQ ID NO: 473 (other)
chain: B12 chain with L147S, K148F, G149S, M150R, G152M, S153G
B23: L5 isolate with insertion SEQ ID NO: 490 (other)
chain: EPKSCDKTHTCPPCPAPELLGGPSVFLFPPKPKDTLMISRTPEVTCVVVDVSHEDPEVKFNWYVDGVEVHNAKTKPREEQYNSTYRVVSVLTVLHQDWLNGKEYKCKVSNKALPAPIEKTISKAKGQPREPQVYTLPPSRDELTKNQVSLTCLVKGFYPSDIAVEWESNGGCDRQVTGFCGGGQPENNYKTTPPVLDSDGSFFLYSKLTVDKSRWQQGNVFSCSVMHEALHNHYTQKSLSLSPGK
B24: variant Fc-fragment Fc-5-110 (other)
chain: B1 chain with V173W, F174G, N175S, Q176R, F177S, N178Q
notes: library L5 isolate
B25: variant Fc-fragment Fc-5-60 (other)
chain: B1 chain with V173Q, F174K, N175G, Q176W, F177V, N178F
notes: library L5 isolate
B26: variant Fc-fragment Fc-5-79 (other)
chain: B1 chain with F174N, N175T, Q176W, F177W, N178S
notes: library L5 isolate
B27: variant Fc-fragment Fc-5-97 (other)
chain: B1 chain with V173N, F174M, N175L, Q176W, F177G, N178S
notes: library L5 isolate
B28: variant Fc-fragment Fc-5-95 (other)
chain: B1 chain with V173D, F174R, N175P, Q176V, F177W, N178F
notes: library L5 isolate
B29: variant Fc-fragment Fc-5-99 (other)
chain: B1 chain with V173Y, F174I, N175T, F177K, N178L
notes: library L5 isolate
B30: variant Fc-fragment Fc-5-70 (other)
chain: B1 chain with V173M, F174V, N175P, Q176F, F177S, N178M
notes: library L5 isolate
B31: variant Fc-fragment Fc-5-85 (other)
chain: B1 chain with V173I, F174G, N175P, Q176F, F177W, N178W
notes: library L5 isolate
B32: variant Fc-fragment Fc-5-55 (other)
chain: B1 chain with V173M, F174Q, N175V, Q176W, F177G, N178S
notes: library L5 isolate

These binders were tested against T1, human neonatal Fc receptor (hFcRn) (human, UniProt P55899 24-290; P61769 21-119) (assay: SPR competition pH 5.5).
T1 construct: Biotinylated in the ELISA, Octet and yeast assays; also called human FcRn; huFcRn
T1 sequence (P55899 24-290 limits assumed, chain 1 of 2): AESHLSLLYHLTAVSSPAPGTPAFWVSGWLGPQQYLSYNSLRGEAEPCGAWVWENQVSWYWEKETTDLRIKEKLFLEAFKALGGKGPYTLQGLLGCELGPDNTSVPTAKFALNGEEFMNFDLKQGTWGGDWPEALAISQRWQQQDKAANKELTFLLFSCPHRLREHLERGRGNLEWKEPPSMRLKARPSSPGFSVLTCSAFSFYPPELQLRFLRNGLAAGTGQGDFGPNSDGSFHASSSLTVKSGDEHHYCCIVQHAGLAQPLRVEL
T1 sequence (P61769 21-119 limits assumed, chain 2 of 2): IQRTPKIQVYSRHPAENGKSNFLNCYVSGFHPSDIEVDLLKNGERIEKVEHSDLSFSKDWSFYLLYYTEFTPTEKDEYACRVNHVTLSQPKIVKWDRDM

In order of falling EC50:
1. B2  57 nM
2. B1  34 nM

The binders below were run against T1, human neonatal Fc receptor (hFcRn) (assay: phage ELISA pH 6;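 further: higher score means stronger binding and above about 3 to 5 exceeds background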).
Protocol: (§1) Approximately 100 μL of biotinylated human FcRn at 2 μg/mL was added to the wells of MAXISORP™ plates coated with 10 μg/mL streptavidin. After washing with PBS plus 0.05% Tween 20 (PBST) five times, phage from the overnight cultures in MES buffer at pH 6.0 or pH 7.4 were added to the plates and incubated at room temperature for 1 hr. A horseradish peroxidase (HRP)-conjugated anti-M13 antibody was used to detect the binding phage, and the plates were scored by a microtiter plate reader using a wavelength in the visible range.
(§2) Binding was assessed by a quantitative enzyme-linked immunoadsorbent assay (ELISA). The ELISA scores reflect binding affinity, with higher scores meaning higher affinity. Typically, scores higher than about 3˜5 indicate binding above background. For library L5, the insertions are between the N169 and G170 according to the numbering in FIG. 2. For libraries 6A and 6B, the insertions are between L143 and T144 according to the numbering in FIG. 2.

In order of falling ELISA score:
1. B6  82.5
2. B7  82.4
3. B8  72.7
4. B12  68.9
5. B11  64.1
6. B9  62.7
7. B18  58.9
8. B5  57.8
9. B4  57.2
10. B10  56.1
11. B21  54.9
12. B3  54.5
13. B14  50.1
14. B16  49.2
15. B17  47.2
16. B20  43.6
17. B19  43.2
18. B15  42.3
19. B13  42.2
20. B22  41.8
21. B23  25

Target: T1, human neonatal Fc receptor (hFcRn)
Experiment: SPR competition pH 5.5
Remark: another data set of the same source
Protocol: (§3) Binding of variant Fc-fragments to human and cynomolgus monkey FcRn was tested using a BIAcore® T100 analysis system (GE Healthcare Bio-Sciences AB Private Limited Liability Company, Uppsala, Sweden) at both pH 5.5 and pH 7.4. The test consisted of incubating various concentrations of the variant Fc-fragments or control Fc-fragments with a fixed amount of human or cynomolgus monkey FcRn under binding conditions and subsequently measuring the amount of free, unbound FcRn in these mixtures by binding to a surface (in a flow cell of a CM5 (Biacore) chip) on which an Fc-fragment was immobilized. […] Thus, the amount of unbound FcRn in the mixture was quantitatively ascertained by surface plasmon resonance through use of the BIAcore® T100 analysis system. […] Initially, a group of 23 variant-Fc-fragments (Fc-5-1 being considered a control) identified in the experiments described above were tested for binding to human FcRn.
(§4) To obtain a reasonable signal for the different molecules and conditions tested, different assay conditions were used. For assays at pH 5.5, 10 nM of human or cynomolgus monkey FcRn was mixed with serial dilutions of the variant and control Fc-fragments being tested (which ranged from 0.1˜2,000 nM) and incubated for 1 hour at room temperature in 10 mM sodium acetate, pH 5.5, 150 mM NaCl, 0.005% P20, 0.1 mg/mL BSA. As positive controls, […] human and cynomolgus monkey FcRn were each incubated in the same solution, for the same time, and at the same temperature described immediately above, but without an added Fc-fragment.

In order of falling EC50:
1. B24  250 nM
2. B4  210 nM
3. B3  190 nM
4. B5  180 nM
5. B8  76 nM
6. B11  75 nM
7. B25  67 nM
8. B26  53 nM
9. B32  49 nM
10. B9  46 nM
11. B28  42 nM
12. B30  26 nM
13. B27  25 nM
14. B10  20 nM
15. B31  18 nM
16. B6  16 nM
17. B7  15 nM
18. B29  15 nM

Each binder was assayed against T2, cynomolgus monkey FcRn (cynomolgus monkey, UniProt Q8SPV9 24-297; Q8SPW0 21-119, limits assumed) (assay: SPR competition pH 5.5).
T2 construct: also called Cynomolgus FcRn
T2 sequence (Q8SPV9 24-297 limits assumed, chain 1 of 2): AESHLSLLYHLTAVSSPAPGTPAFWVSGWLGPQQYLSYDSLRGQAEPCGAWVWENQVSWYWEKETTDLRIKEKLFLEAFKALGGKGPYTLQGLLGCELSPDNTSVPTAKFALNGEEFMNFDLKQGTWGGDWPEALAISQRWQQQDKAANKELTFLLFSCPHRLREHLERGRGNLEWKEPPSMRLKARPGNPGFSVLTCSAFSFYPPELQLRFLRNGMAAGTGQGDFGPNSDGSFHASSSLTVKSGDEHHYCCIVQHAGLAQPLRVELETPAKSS
T2 sequence (Q8SPW0 21-119 limits assumed, chain 2 of 2): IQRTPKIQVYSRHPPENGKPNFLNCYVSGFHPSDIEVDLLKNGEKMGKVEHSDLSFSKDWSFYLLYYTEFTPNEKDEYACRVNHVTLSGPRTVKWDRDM
Protocol: as §3, §4

In order of falling EC50:
1. B26  63 nM
2. B25  60 nM
3. B32  53 nM
4. B28  50 nM
5. B9  49 nM
6. B27  31 nM
7. B30  27 nM
8. B10  27 nM
9. B31  25 nM
10. B6  21 nM
11. B7  16 nM
12. B29  16 nM

These binders were tested against T1, human neonatal Fc receptor (hFcRn) (assay: phage ELISA pH 7.4;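 further: higher score means stronger binding and above about 3 to 5 exceeds background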).
Protocol: as §1, §2

In order of falling ELISA score:
1. B12  0.8
2. B18  0.8
3. B10  0.7
4. B21  0.6
5. B8  0.5
6. B11  0.5
7. B4  0.4
8. B6  0.4
9. B9  0.4
10. B13  0.4
11. B14  0.4
12. B16  0.4
13. B17  0.4
14. B23  0.4
15. B3  0.3
16. B5  0.3
17. B19  0.3
18. B22  0.3
19. B15  0.2
20. B20  0.2
